The source of these data is article PMC4944944 (2016).

In the experiment the target is F-actin prepared from muscle actin (Oryctolagus cuniculus (Rabbit), UniProt P68135). Description: F-actin co-sedimentation.

B1: Flag::mCherry::CHDP-1 (protein)
chain: MSEEIKKIEEVAEQDKAPKVPTTEPPVDVPAPVTEEAPKVEEAVAEIAAPAAAEGETATAAAAAPEEKKKSGGVARRFTFNKRWGKHRDAEASTPKEPEAPKDPKEDVLGWIAQQIPQAVHKANYQVIDWVQKTAIPEEGERKTIPGKDQATTRNQFIGFFKDGDVLAKLANALEPGAVEVAAAEENADAAAQKEVQKKNIDAFGAWAQKTLGTEAAPVTNEDLLEKGKAGYTAVFQTLWQLGVQAKEKFDKEGFNVDTIVQLANSVVKSGLLTTILGFFRRNRQAAAAVEEPKDETAAAEGAGEAKEEGATGEVADTADEPVAVKQETSAPAAVAAN
Turning to B1, the binding result was “no binding”.
